Data as given in paper PMC6255834, “Single point mutations reveal amino acid residues important for Chromobacterium violaceum transaminase activity in the production of unnatural amino acids” (Scientific Reports, 2018).

Experiments:
Test in all cases: purified protein
purified protein [1] = substrate: CCCCCCC(=O)C(=O)O; conditions: amino acceptor, 10 mM 1-PEA as donor, pH 7, 45 °C
purified protein [2] = substrate: COC(=O)CC(C)=O; conditions: amino acceptor, 10 mM 1-PEA as donor, pH 7, 45 °C, highest concentration tested 20 mM
purified protein [3] = substrate: C[C@H](N)c1ccccc1; conditions: amino donor, full reaction with 2.5 mM 2-OOA as acceptor, pH 7, 45 °C

B1: CV_TA (Chromobacterium violaceum DSM30191 transaminase; ω-TA) (Chromobacterium violaceum ATCC 12472) (protein)
chain: MQKQRTTSQWRELDAAHHLHPFTDTASLNQAGARVMTRGEGVYLWDSEGNKIIDGMAGLWCVNVGYGRKDFAEAARRQMEELPFYNTFFKTTHPAVVELSSLLAEVTPAGFDRVFYTNSGSESVDTMIRMVRRYWDVQGKPEKKTLIGRWNGYHGSTIGGASLGGMKYMHEQGDLPIPGMAHIEQPWWYKHGKDMTPDEFGVVAARWLEEKILEIGADKVAAFVGEPIQGAGGVIVPPATYWPEIERICRKYDVLLVADEVICGFGRTGEWFGHQHFGFQPDLFTAAKGLSSGYLPIGAVFVGKRVAEGLIAGGDFNHGFTYSGHPVCAAVAHANVAALRDEGIVQRVKDDIGPYMQKRWRETFSRFEHVDDVRGVGMVQAFTLVKNKAKRELFPDFGEIGTLCRDIFFRNNLIMRACGDHIVSAPPLVMTRAEVDEMLAVAERCLEEFEQTLKARGLA
Purified protein [1]
  Km: 400 ± 150 µM
  kcat: 0.412 ± 0.0733 s⁻¹
  kcat/Km: 1030 M⁻¹ s⁻¹
Purified protein [2]
  Km: 18800 ± 5000 µM
  kcat: 0.155 ± 0.0117 s⁻¹
  kcat/Km: 8.33 M⁻¹ s⁻¹
Purified protein [3]
  Km: 2600 ± 630 µM
